The target in experiment [1] is T1, BCMA on HEK293F-BCMA-NF-kB-luc cells (clone 1H2) (UniProt Q02223 1-184, limits assumed).
T1 sequence (looked up): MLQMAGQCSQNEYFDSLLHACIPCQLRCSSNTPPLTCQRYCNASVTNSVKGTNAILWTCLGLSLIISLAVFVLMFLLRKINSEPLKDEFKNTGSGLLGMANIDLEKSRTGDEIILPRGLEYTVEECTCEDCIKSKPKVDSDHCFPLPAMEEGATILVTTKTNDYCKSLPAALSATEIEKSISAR
Description: cell-based or functional assay.

For a further experiment, the target named is T2, BCMA on NCI-H929 cells (human, UniProt Q02223 1-184).
T2 sequence (looked up): T1 sequence (looked up)
Kind of experiment: cell-based or functional assay.

The target of experiment [2] is T3, cynomolgus BCMA(ECD)/Fc target polypeptide (cynomolgus).
T3 construct: extracellular domain; also called Cyno BCMA (ECD); cynoBCMA/Fc
Kind of experiment: SPR, Biacore T200, 25 C; antibody captured on anti-mouse IgG Fc, BCMA(ECD)/Fc injected. As to the method: (§1) Briefly, goat anti-mouse IgG Fc antibody was directly immobilized across a biosensor chip, and antibody samples were injected over reaction matrices at a flow rate of 5 μl/min. Mouse anti-BCMA IgG test antibody was injected over the immobilized surface and captured by the immobilized anti-Fc antibodies. Human and cynomolgus BCMA(ECD)/Fc target polypeptides were then injected over the captured mouse anti-BCMA IgG surface. The association and dissociation rate constants, kₒₙ (M⁻¹s⁻¹) and koff (s⁻¹), respectively, were determined with a continuous flow rate of 30 μl/min. Rate constants were derived by making kinetic binding measurements at five different concentrations of target BCMA(ECD) polypeptide. The equilibrium dissociation constant KD (M) of the reaction between antibodies and related target proteins was then calculated from the kinetic rate constants using the formula KD=koff/kₒₙ. Kinetic constants were determined by processing and fitting the data to a 1:1 binding model using Biacore analysis software.

The target in experiment [3] is T4, recombinant human BCMA extracellular domain/Fc dimer (human).
T4 construct: also called Human BCMA (ECD); human BCMA(ECD)/Fc
Described as above. As to the method: as §1

Experiment [4] concerns the target T1, BCMA on HEK293F-BCMA-NF-kB-luc cells …. Description: cell-based or functional assay. The source holds these as a separate data set.
Experiment [5] addresses T5, human CD3 on the surface of Jurkat cells (human, UniProt P07766 23-207; P09693 23-182; P04234 22-171).
T5 construct: whole, on cells; Endogenous CD3 complex of the Jurkat T cell line; also called cell surface CD3 target on Jurkat cells; CD3-expressing Jurkat cells
Kind of experiment: cell binding assay, Jurkat cells.

Experiment [6] deals with T6, cynoCD3εγ/Fc fusion protein (cynomolgus monkey, UniProt Q95LI5 22-117; Q95LI7 23-113).
T6 construct: also called cynomolgus monkey CD3ε/γ heterodimer-Fc fusion protein; not shown: linker and Fc not described for the cynomolgus construct
T6 sequence (looked up) 1: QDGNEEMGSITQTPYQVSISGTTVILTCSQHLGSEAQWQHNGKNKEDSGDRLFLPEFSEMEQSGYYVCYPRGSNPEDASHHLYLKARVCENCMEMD
T6 sequence (looked up) 2: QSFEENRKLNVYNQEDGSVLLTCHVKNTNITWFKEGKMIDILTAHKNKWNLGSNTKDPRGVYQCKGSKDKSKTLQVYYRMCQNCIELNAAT
Kind of experiment: ELISA on plate-coated cyno CD3e/g heterodimer-Fc, OD450nm, unit taken from the concentration axis. The protocol: (§2) The binding properties of the isolated murine anti-CD3 antibodies were measured with ELISA as follows: Heterodimeric CD3εγ/Fc fusion protein was coated at 1 μg/mL on 96-well plates at 4° C. overnight. Plates were washed once with washing buffer (PBS containing 0.05% Tween 20) and blocked with ELISA blocking buffer (1% BSA in PBS containing 0.05% Tween 20) at room temperature for 2 hours. Anti-CD3 antibodies were then added and incubated at 37° C. for 1 hour. Plates were washed three times with washing buffer. HRP labeled anti-mouse IgG secondary antibody (Sigma, Cat. #A0168) was added and the plates were incubated at 37° C. for 30 minutes then washed 5 times in washing buffer. 100 μl of tetramethylbenzidine (TMB) chromogenic solution was added to each well. Following color development, the reaction was stopped with 1 Normal HCl and absorbance at 450 nm was measured on a Varioskan™ LUX microplate reader (ThermoFisher Scientific). Binding signals were plotted against antibody concentration with GraphPad Prism 5.0 software and EC50s were calculated accordingly.

Experiment [7] deals with T7, recombinant huCD3εγ/Fc fusion protein (fusion protein heterodimer) (human).
T7 construct: also called huCD3/Fc dimer; heterodimeric CD3εγ/Fc fusion protein
T7 sequence (chain, as listed by the source limits assumed, chain 1 of 2): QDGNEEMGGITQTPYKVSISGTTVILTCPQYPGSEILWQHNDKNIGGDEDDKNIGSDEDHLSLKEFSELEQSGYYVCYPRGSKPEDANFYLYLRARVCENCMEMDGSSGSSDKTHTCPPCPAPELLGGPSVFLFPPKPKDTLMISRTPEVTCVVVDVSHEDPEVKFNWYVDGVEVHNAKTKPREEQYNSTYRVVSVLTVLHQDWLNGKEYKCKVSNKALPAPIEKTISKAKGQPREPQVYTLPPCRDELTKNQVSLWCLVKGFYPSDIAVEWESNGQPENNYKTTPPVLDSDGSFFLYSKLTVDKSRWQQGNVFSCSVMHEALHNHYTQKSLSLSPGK
T7 sequence (chain, as listed by the source limits assumed, chain 2 of 2): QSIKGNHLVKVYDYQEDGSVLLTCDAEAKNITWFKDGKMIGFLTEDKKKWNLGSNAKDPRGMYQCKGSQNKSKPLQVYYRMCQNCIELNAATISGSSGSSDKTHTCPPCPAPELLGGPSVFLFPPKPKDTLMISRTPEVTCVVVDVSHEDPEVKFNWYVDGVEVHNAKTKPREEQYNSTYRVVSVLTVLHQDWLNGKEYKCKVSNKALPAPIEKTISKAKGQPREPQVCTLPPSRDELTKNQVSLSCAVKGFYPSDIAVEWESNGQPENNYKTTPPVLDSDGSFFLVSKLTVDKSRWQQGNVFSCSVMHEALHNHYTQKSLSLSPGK
Kind of experiment: ELISA on plate-coated human CD3e/g heterodimer-Fc, OD450nm, unit taken from the concentration axis. The protocol: as §2
On the technique in general: In an ELISA, binding on a coated surface is turned into a signal by an enzyme label.

For experiment [8], the target named is T5, human CD3 on the surface of Jurkat cells. Description: flow cytometry on Jurkat cells, MFI against antibody conc. (nM). As to the method: Different humanized VH and VK combinations led to humanized anti-CD3 variants with different CD3 binding affinities. The binding activity of the humanized variants of mAbCD3-001 were tested via flow cytometry with the human CD3-expressing Jurkat T cell line. 5×10⁵ Jurkat cells in FACS buffer were seeded into each well of a 96-well plate. Cells were centrifuged at 400 g for 5 minutes and supernatants were discarded. For each well, 100 μl of serially diluted antibodies were then added and mixed with the cells. After 40 minutes incubation at 4° C., plates were washed several times to remove excess antibodies. […] After another round of centrifugation and a washing step, cells were resuspended in FACS buffer for reading on a CytoFLEX Flow Cytometer (Beckman Coulter). Median Fluorescence Intensity (MFI) readouts were plotted against antibody concentration and analyzed with GraphPad Prism 5.0 software.
Background: Flow cytometry measures light scatter and fluorescence of single cells or particles in a stream.

Numbering of substitutions follows the chain as printed.

T5 sequence (P07766 23-207, chain 1 of 3): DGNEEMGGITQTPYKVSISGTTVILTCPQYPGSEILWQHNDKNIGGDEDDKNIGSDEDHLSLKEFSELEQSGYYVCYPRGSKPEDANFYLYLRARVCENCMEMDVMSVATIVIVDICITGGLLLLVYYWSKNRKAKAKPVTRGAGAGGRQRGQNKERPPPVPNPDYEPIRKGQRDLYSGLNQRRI
T5 sequence (P09693 23-182, chain 2 of 3): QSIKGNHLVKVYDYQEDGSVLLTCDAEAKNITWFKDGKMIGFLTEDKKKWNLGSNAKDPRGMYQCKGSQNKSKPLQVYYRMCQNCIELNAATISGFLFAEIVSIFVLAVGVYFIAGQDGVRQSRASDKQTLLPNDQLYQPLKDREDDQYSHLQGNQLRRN
T5 sequence (P04234 22-171, chain 3 of 3): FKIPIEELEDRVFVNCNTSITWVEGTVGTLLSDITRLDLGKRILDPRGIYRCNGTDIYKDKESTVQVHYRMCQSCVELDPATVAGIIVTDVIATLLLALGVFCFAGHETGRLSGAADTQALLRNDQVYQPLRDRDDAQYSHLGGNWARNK

B1: mAbBCMA-003 (antibody, V domains shown)
VH: EVQLQQSGTVLARPGASVRMSCKASGYIFPNFWMHWVKQRPGQGLDWIGAFYPGNDDTYYNQKFKGKAKLTAVTSASTAYMELSSLTSEDSAVYYCARSGYYGSSDAMDYWGQGTSVTVSS
VL: DIQMTQSPASLSASVGETVTVTCGASENIYGALNWYQRKQGKSPQLLIYGATNLADGISSRFSGSGSGRQFSLKISSLLPDDVATYFCQSVLTTPWTFGGGTKLEIK
notes: Mouse anti-BCMA IgG from hybridoma
As a reminder, the Kd is the free concentration of one partner at which half of the binding sites on the other are occupied at equilibrium, for simple one-to-one binding. In general, koff refers to the first-order rate constant of dissociation. Broadly, the kon is the rate constant with which the complex forms. For the molecule B1, in [1], the “EC50 of inhibition of the BAFF-induced NF-kB luciferase signal in HEK293F-BCMA-NF-kB-luc cells (inhibition %), unit from the axis” value worked out at 3.87 nM. In addition, in the experiment with BCMA on NCI-H929 cells, the “EC50 of inhibition of BAFF-induced NF-kB phosphorylation in NCI-H929 cells (inhibition %), unit from the axis” value stood at 16.7 nM. In experiment [2], this molecule displayed a dissociation constant Kd of 3.9 nM, a koff of 0.000236 s⁻¹ and a kon of 60600 M⁻¹ s⁻¹. Further, in experiment [3], the Kd was found to be 0.408 nM, the koff came to 1.85e-05 s⁻¹ and the on-rate (kon) was 45400 M⁻¹ s⁻¹. The “EC50 of inhibition of the APRIL-induced NF-kB luciferase signal in HEK293F-BCMA-NF-kB-luc cells (inhibition %), unit from the axis” value in experiment [4] amounted to 6.18 nM.

B2: mAbCD3-001 (antibody, V domains shown)
VH: QVQLQQSGPDLVKPGASVKISCKASGFSFTNYYVHWMKQRPGQGLEWIGWISPGSDNTKYNEKFKGKATLTADTSSTTAYMQLSSLTSEDSAVYYCARDDYGNYYFDYWGRGSTLTVSS
VL: DIVMSQSPSSLAVSAGEKVTMTCKSSQSLLNSRTRKNYLAWYQQKPGQSPKLLIYWASTRESGVPDRFTGSGSGTDFTLTISSVQAEDLAVYYCKQSYILRTFGGGTKLEIK
notes: Murine hybridoma monoclonal antibody
As a reminder, the EC50 is the midpoint of the concentration-response curve. As for B2, in experiment [5], the binding result is listed as “binds”. Moreover, the results for the EC50 in experiment [6] and in [7] were 0.0235 µg/mL and 0.028 µg/mL, respectively.

B3: mAbCD3-002 (antibody, V domains shown)
VH: QVQLQQSGPELVKPGASVRISCKASGYTFTNYYIHWVKQRPGQGLEWIGWINLGDVNTKFNEKFKDKATLTADKSSTTAYMQLSSLTSEDSAVYFCARDGYSFYYFDFWGQGTTLTVSS
VL: B2 VL with A15V, T22S, S25A, L30F, T78I, L79F, V91I, K95I, Y98H, I99T
notes: as for B2
In the case of B3, in [5], the binding result is “binds”. Moreover, the EC50 in experiment [6] came to 0.0109 µg/mL; in experiment [7], 0.01 µg/mL.

B4: HuEM0006-01c (antibody, human IgG1, kappa, L234A L235A, V domains shown)
VH: B2 VH
VL: DIVMSQSPSSLAVSAGEKVTMTCKSSQSLLNSRTRKNYLAWYQQKPGQSPKLLIYWASTRESGVPDRFTGSGSGTDFTLTISSVQAEDLAVYYCKQSYILRTFGGGTKLEIKR
notes: also called chimeric control antibody
Take B4: the binding result in experiment [8] is “binds”.

The record behind these values is US20230002489A1 (SHANGHAI EPIMAB BIOTHERAPEUTICS, published 2023).
